This test has as its target T1, Qa-SNARE Vam3, full-length, wild-type (S. cerevisiae, UniProt Q12241 1-283).
T1 construct: Vam3, vacuolar Qa-SNARE, S. cerevisiae, full-length wild type with its transmembrane domain (residues 265-283); also called GST-Qa; source: isolated as described (Mima et al., 2008; Schwartz and Merz, 2009; Zucchi and Zick, 2011), reconstituted into proteoliposomes
T1 sequence (looked up): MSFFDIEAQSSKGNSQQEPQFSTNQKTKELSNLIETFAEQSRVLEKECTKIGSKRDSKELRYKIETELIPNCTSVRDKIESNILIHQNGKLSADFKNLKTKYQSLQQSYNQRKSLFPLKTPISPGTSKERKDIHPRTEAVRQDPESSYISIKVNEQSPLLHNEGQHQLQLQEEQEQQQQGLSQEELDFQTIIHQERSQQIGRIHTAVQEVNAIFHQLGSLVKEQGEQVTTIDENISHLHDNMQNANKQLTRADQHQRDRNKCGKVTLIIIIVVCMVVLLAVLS
The test is described as follows: co-IP; proteoliposomes with Ypt7 and R mixed with proteoliposomes with Ypt7, Qa and Qb, with or without 50 nM HOPS and 4 μM Qc, 33 min; solubilised in modified RIPA buffer with 5 μM GST-R; anti-Qa antibody and protein A magnetic beads, 4°C, 2 h; immunoblot with antibodies to R, Qa and Vps33. Particulars: both partners purified. (In western blotting, separated proteins are transferred to a membrane and probed.)

B1: R-SNARE (Nyv1), full-length, wild-type (natural protein, S. cerevisiae, UniProt Q12255 1-253, looked up)
chain: MKRFNVSYVEVIKNGETISSCFQPFQKNENYGTITSANEQITPVIFHNLIMDMVLPKVVPIKGNKVTKMSMNLIDGFDCFYSTDDHDPKTVYVCFTLVDMPKILPIRILSGLQEYESNATNELLSSHVGQILDSFHEELVEYRNQTLNSSGNGQSSNGNGQNTISDIGDATEDQIKDVIQIMNDNIDKFLERQERVSLLVDKTSQLNSSSNKFRRKAVNIKEIMWWQKVKNITLLTFTIILFVSAAFMFFYLW
notes: Nyv1, vacuolar R-SNARE, S. cerevisiae, full-length wild type with its membrane anchor; source: isolated as described (Mima et al., 2008; Schwartz and Merz, 2009; Zucchi and Zick, 2011), buffer exchanged into β-octylglucoside, reconstituted into proteoliposomes
As to B1, the binding result is “binds”.

(Values after article doi:10.1101/751404, “HOPS recognizes each SNARE, assembling ternary trans-complexes for sudden fusion upon engagement with the 4th SNARE” (bioRxiv, 2019).)
